Results published in patent US20260001928A1 (CORTERIA PHARMACEUTICALS, priority 2022, published 2026).
*1 amine or outer side, *2 acyl side, *3 side chain or, on linkers, in order; H or OH if unused. Where no end group is shown, it is not given here. Side-chain parts run from the residue outwards. [ ]: non-standard residue; d: D form. The star is where a group is joined. C18 diacid = O=C(O)CCCCCCCCCCCCCCCCC(=O)*; C16 diacid = O=C(O)CCCCCCCCCCCCCCC(=O)*; γGlu = O=C(O)[C@H](CCC(=O)[*:2])N[*:1]; NMeI = CC[C@H](C)[C@H](NC)C(=O)O; αMeL = CC(C)C[C@](C)(N)C(=O)O; Pentanoyl = CCCCC(=O)*; AEEA = NCCOCCOCC(=O)O; Aib = CC(C)(N)C(=O)O

Columns and labels:
CRF1R receptor = target: T1, CRF1R receptor (UniProt P34998 24-415, limits assumed); assay: cell-based or functional assay
T1 sequence (looked up): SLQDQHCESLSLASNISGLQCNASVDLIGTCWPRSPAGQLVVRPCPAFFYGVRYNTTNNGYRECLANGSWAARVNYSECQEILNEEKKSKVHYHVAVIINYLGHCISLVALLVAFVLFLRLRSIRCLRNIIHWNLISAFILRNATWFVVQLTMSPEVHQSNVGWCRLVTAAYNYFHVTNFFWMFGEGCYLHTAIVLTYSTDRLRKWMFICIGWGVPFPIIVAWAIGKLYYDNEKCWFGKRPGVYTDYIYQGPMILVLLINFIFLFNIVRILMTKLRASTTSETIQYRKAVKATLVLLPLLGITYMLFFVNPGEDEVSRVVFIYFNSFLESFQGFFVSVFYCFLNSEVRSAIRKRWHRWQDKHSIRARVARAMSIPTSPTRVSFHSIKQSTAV

[1] = target: human corticotropin-releasing factor 2a (CRF2a receptor) (human), Q13324; assay: cell-based or functional assay
human corticotropin-releasing factor 2a (CRF2a receptor) (human), Q13324, sequence (Q13324 20-411): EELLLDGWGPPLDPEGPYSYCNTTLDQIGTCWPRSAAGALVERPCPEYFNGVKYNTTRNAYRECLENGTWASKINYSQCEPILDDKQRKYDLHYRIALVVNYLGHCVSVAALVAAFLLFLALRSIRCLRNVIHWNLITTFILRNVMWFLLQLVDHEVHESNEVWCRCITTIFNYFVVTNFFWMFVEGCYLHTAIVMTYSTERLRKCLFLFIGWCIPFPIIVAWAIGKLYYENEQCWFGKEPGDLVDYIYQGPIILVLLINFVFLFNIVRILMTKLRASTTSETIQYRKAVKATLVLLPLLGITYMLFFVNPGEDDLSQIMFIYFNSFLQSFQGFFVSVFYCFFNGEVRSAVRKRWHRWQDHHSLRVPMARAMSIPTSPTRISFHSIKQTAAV

Binder	Emax (% I) (CRF1R receptor) [%]	EC50 [nM] (cAMP) [1]	EC50 (CRF1R receptor) [nM]
[NMeI]VLSLD[dV]PIKLK([AEEA-AEEA-γGlu-γGlu-C18 diacid])Q[Aib]LLKQERQKKQREQAEKNVQILEQV-NH2 (N-terminus assumed; SMILES CC[C@H](C)[C@H](NC)C(=O)N[C@H](C(=O)N[C@@H](CC(C)C)C(=O)N[C@@H](CO)C(=O)N[C@@H](CC(C)C)C(=O)N[C@@H](CC(=O)O)C(=O)N[C@@H](C(=O)N1CCC[C@H]1C(=O)N[C@H](C(=O)N[C@@H](CCCCN)C(=O)N[C@@H](CC(C)C)C(=O)N[C@@H](CCCCNC(=O)COCCOCCNC(=O)COCCOCCNC(=O)CC[C@H](NC(=O)CC[C@H](NC(=O)CCCCCCCCCCCCCCCCC(=O)O)C(=O)O)C(=O)O)C(=O)N[C@@H](CCC(N)=O)C(=O)NC(C)(C)C(=O)N[C@@H](CC(C)C)C(=O)N[C@@H](CC(C)C)C(=O)N[C@@H](CCCCN)C(=O)N[C@@H](CCC(N)=O)C(=O)N[C@@H](CCC(=O)O)C(=O)N[C@@H](CCCNC(=N)N)C(=O)N[C@@H](CCC(N)=O)C(=O)N[C@@H](CCCCN)C(=O)N[C@@H](CCCCN)C(=O)N[C@@H](CCC(N)=O)C(=O)N[C@@H](CCCNC(=N)N)C(=O)N[C@@H](CCC(=O)O)C(=O)N[C@@H](CCC(N)=O)C(=O)N[C@@H](C)C(=O)N[C@@H](CCC(=O)O)C(=O)N[C@@H](CCCCN)C(=O)N[C@@H](CC(N)=O)C(=O)N[C@H](C(=O)N[C@@H](CCC(N)=O)C(=O)N[C@H](C(=O)N[C@@H](CC(C)C)C(=O)N[C@@H](CCC(=O)O)C(=O)N[C@@H](CCC(N)=O)C(=O)N[C@H](C(N)=O)C(C)C)[C@@H](C)CC)C(C)C)[C@@H](C)CC)C(C)C)C(C)C) [SEQ ID NO 28]	6	2.2	> 250
Ac-IVLSLD[dV]PIKLK([γGlu-C16 diacid])QILLKQERQKKQREQAEKN[Aib]QILEQV-NH2 (SMILES CC[C@H](C)[C@H](NC(C)=O)C(=O)N[C@H](C(=O)N[C@@H](CC(C)C)C(=O)N[C@@H](CO)C(=O)N[C@@H](CC(C)C)C(=O)N[C@@H](CC(=O)O)C(=O)N[C@@H](C(=O)N1CCC[C@H]1C(=O)N[C@H](C(=O)N[C@@H](CCCCN)C(=O)N[C@@H](CC(C)C)C(=O)N[C@@H](CCCCNC(=O)CC[C@H](NC(=O)CCCCCCCCCCCCCCC(=O)O)C(=O)O)C(=O)N[C@@H](CCC(N)=O)C(=O)N[C@H](C(=O)N[C@@H](CC(C)C)C(=O)N[C@@H](CC(C)C)C(=O)N[C@@H](CCCCN)C(=O)N[C@@H](CCC(N)=O)C(=O)N[C@@H](CCC(=O)O)C(=O)N[C@@H](CCCNC(=N)N)C(=O)N[C@@H](CCC(N)=O)C(=O)N[C@@H](CCCCN)C(=O)N[C@@H](CCCCN)C(=O)N[C@@H](CCC(N)=O)C(=O)N[C@@H](CCCNC(=N)N)C(=O)N[C@@H](CCC(=O)O)C(=O)N[C@@H](CCC(N)=O)C(=O)N[C@@H](C)C(=O)N[C@@H](CCC(=O)O)C(=O)N[C@@H](CCCCN)C(=O)N[C@@H](CC(N)=O)C(=O)NC(C)(C)C(=O)N[C@@H](CCC(N)=O)C(=O)N[C@H](C(=O)N[C@@H](CC(C)C)C(=O)N[C@@H](CCC(=O)O)C(=O)N[C@@H](CCC(N)=O)C(=O)N[C@H](C(N)=O)C(C)C)[C@@H](C)CC)[C@@H](C)CC)[C@@H](C)CC)C(C)C)C(C)C) [SEQ ID NO 16]	47	0.13	185
Pentanoyl-VLSLD[dV]PIKLK([AEEA-AEEA-γGlu-γGlu-C18 diacid])Q[Aib]LLKQERQKKQREQAEKNVQILEQV-NH2 (SMILES CCCCC(=O)N[C@H](C(=O)N[C@@H](CC(C)C)C(=O)N[C@@H](CO)C(=O)N[C@@H](CC(C)C)C(=O)N[C@@H](CC(=O)O)C(=O)N[C@@H](C(=O)N1CCC[C@H]1C(=O)N[C@H](C(=O)N[C@@H](CCCCN)C(=O)N[C@@H](CC(C)C)C(=O)N[C@@H](CCCCNC(=O)COCCOCCNC(=O)COCCOCCNC(=O)CC[C@H](NC(=O)CC[C@H](NC(=O)CCCCCCCCCCCCCCCCC(=O)O)C(=O)O)C(=O)O)C(=O)N[C@@H](CCC(N)=O)C(=O)NC(C)(C)C(=O)N[C@@H](CC(C)C)C(=O)N[C@@H](CC(C)C)C(=O)N[C@@H](CCCCN)C(=O)N[C@@H](CCC(N)=O)C(=O)N[C@@H](CCC(=O)O)C(=O)N[C@@H](CCCNC(=N)N)C(=O)N[C@@H](CCC(N)=O)C(=O)N[C@@H](CCCCN)C(=O)N[C@@H](CCCCN)C(=O)N[C@@H](CCC(N)=O)C(=O)N[C@@H](CCCNC(=N)N)C(=O)N[C@@H](CCC(=O)O)C(=O)N[C@@H](CCC(N)=O)C(=O)N[C@@H](C)C(=O)N[C@@H](CCC(=O)O)C(=O)N[C@@H](CCCCN)C(=O)N[C@@H](CC(N)=O)C(=O)N[C@H](C(=O)N[C@@H](CCC(N)=O)C(=O)N[C@H](C(=O)N[C@@H](CC(C)C)C(=O)N[C@@H](CCC(=O)O)C(=O)N[C@@H](CCC(N)=O)C(=O)N[C@H](C(N)=O)C(C)C)[C@@H](C)CC)C(C)C)[C@@H](C)CC)C(C)C)C(C)C) [SEQ ID NO 29]	6	37.2	> 250
Ac-IVLSLD[dV]PIKLK([AEEA-AEEA-γGlu-γGlu-C18 diacid])Q[Aib]LLKQERQKKQREQAEKNVQILEQV-NH2 (SMILES CC[C@H](C)[C@H](NC(C)=O)C(=O)N[C@H](C(=O)N[C@@H](CC(C)C)C(=O)N[C@@H](CO)C(=O)N[C@@H](CC(C)C)C(=O)N[C@@H](CC(=O)O)C(=O)N[C@@H](C(=O)N1CCC[C@H]1C(=O)N[C@H](C(=O)N[C@@H](CCCCN)C(=O)N[C@@H](CC(C)C)C(=O)N[C@@H](CCCCNC(=O)COCCOCCNC(=O)COCCOCCNC(=O)CC[C@H](NC(=O)CC[C@H](NC(=O)CCCCCCCCCCCCCCCCC(=O)O)C(=O)O)C(=O)O)C(=O)N[C@@H](CCC(N)=O)C(=O)NC(C)(C)C(=O)N[C@@H](CC(C)C)C(=O)N[C@@H](CC(C)C)C(=O)N[C@@H](CCCCN)C(=O)N[C@@H](CCC(N)=O)C(=O)N[C@@H](CCC(=O)O)C(=O)N[C@@H](CCCNC(=N)N)C(=O)N[C@@H](CCC(N)=O)C(=O)N[C@@H](CCCCN)C(=O)N[C@@H](CCCCN)C(=O)N[C@@H](CCC(N)=O)C(=O)N[C@@H](CCCNC(=N)N)C(=O)N[C@@H](CCC(=O)O)C(=O)N[C@@H](CCC(N)=O)C(=O)N[C@@H](C)C(=O)N[C@@H](CCC(=O)O)C(=O)N[C@@H](CCCCN)C(=O)N[C@@H](CC(N)=O)C(=O)N[C@H](C(=O)N[C@@H](CCC(N)=O)C(=O)N[C@H](C(=O)N[C@@H](CC(C)C)C(=O)N[C@@H](CCC(=O)O)C(=O)N[C@@H](CCC(N)=O)C(=O)N[C@H](C(N)=O)C(C)C)[C@@H](C)CC)C(C)C)[C@@H](C)CC)C(C)C)C(C)C) [SEQ ID NO 27]	7	16.9	> 250

Results, then the binder that gave them:

Emax (% I) (CRF1R receptor) [%]	EC50 [nM] (cAMP) [1]	EC50 (CRF1R receptor) [nM]	Binder
-3	2.58	–	Ac-IVLSLD[dV]PIK[αMeL]K([AEEA-AEEA-γGlu-C18 diacid])KILLEQEKQKKQREQAETNVQILAQV-NH2 (SMILES CC[C@H](C)[C@H](NC(C)=O)C(=O)N[C@H](C(=O)N[C@@H](CC(C)C)C(=O)N[C@@H](CO)C(=O)N[C@@H](CC(C)C)C(=O)N[C@@H](CC(=O)O)C(=O)N[C@@H](C(=O)N1CCC[C@H]1C(=O)N[C@H](C(=O)N[C@@H](CCCCN)C(=O)N[C@@](C)(CC(C)C)C(=O)N[C@@H](CCCCNC(=O)COCCOCCNC(=O)COCCOCCNC(=O)CC[C@H](NC(=O)CCCCCCCCCCCCCCCCC(=O)O)C(=O)O)C(=O)N[C@@H](CCCCN)C(=O)N[C@H](C(=O)N[C@@H](CC(C)C)C(=O)N[C@@H](CC(C)C)C(=O)N[C@@H](CCC(=O)O)C(=O)N[C@@H](CCC(N)=O)C(=O)N[C@@H](CCC(=O)O)C(=O)N[C@@H](CCCCN)C(=O)N[C@@H](CCC(N)=O)C(=O)N[C@@H](CCCCN)C(=O)N[C@@H](CCCCN)C(=O)N[C@@H](CCC(N)=O)C(=O)N[C@@H](CCCNC(=N)N)C(=O)N[C@@H](CCC(=O)O)C(=O)N[C@@H](CCC(N)=O)C(=O)N[C@@H](C)C(=O)N[C@@H](CCC(=O)O)C(=O)N[C@H](C(=O)N[C@@H](CC(N)=O)C(=O)N[C@H](C(=O)N[C@@H](CCC(N)=O)C(=O)N[C@H](C(=O)N[C@@H](CC(C)C)C(=O)N[C@@H](C)C(=O)N[C@@H](CCC(N)=O)C(=O)N[C@H](C(N)=O)C(C)C)[C@@H](C)CC)C(C)C)[C@@H](C)O)[C@@H](C)CC)[C@@H](C)CC)C(C)C)C(C)C) [SEQ ID NO 111]
4	1.35	–	Ac-IVLSLD[dV]PIKLK([γGlu-C16 diacid])KILLEQEKQKKQREQAETNVQILAQV-NH2 (SMILES CC[C@H](C)[C@H](NC(C)=O)C(=O)N[C@H](C(=O)N[C@@H](CC(C)C)C(=O)N[C@@H](CO)C(=O)N[C@@H](CC(C)C)C(=O)N[C@@H](CC(=O)O)C(=O)N[C@@H](C(=O)N1CCC[C@H]1C(=O)N[C@H](C(=O)N[C@@H](CCCCN)C(=O)N[C@@H](CC(C)C)C(=O)N[C@@H](CCCCNC(=O)CC[C@H](NC(=O)CCCCCCCCCCCCCCC(=O)O)C(=O)O)C(=O)N[C@@H](CCCCN)C(=O)N[C@H](C(=O)N[C@@H](CC(C)C)C(=O)N[C@@H](CC(C)C)C(=O)N[C@@H](CCC(=O)O)C(=O)N[C@@H](CCC(N)=O)C(=O)N[C@@H](CCC(=O)O)C(=O)N[C@@H](CCCCN)C(=O)N[C@@H](CCC(N)=O)C(=O)N[C@@H](CCCCN)C(=O)N[C@@H](CCCCN)C(=O)N[C@@H](CCC(N)=O)C(=O)N[C@@H](CCCNC(=N)N)C(=O)N[C@@H](CCC(=O)O)C(=O)N[C@@H](CCC(N)=O)C(=O)N[C@@H](C)C(=O)N[C@@H](CCC(=O)O)C(=O)N[C@H](C(=O)N[C@@H](CC(N)=O)C(=O)N[C@H](C(=O)N[C@@H](CCC(N)=O)C(=O)N[C@H](C(=O)N[C@@H](CC(C)C)C(=O)N[C@@H](C)C(=O)N[C@@H](CCC(N)=O)C(=O)N[C@H](C(N)=O)C(C)C)[C@@H](C)CC)C(C)C)[C@@H](C)O)[C@@H](C)CC)[C@@H](C)CC)C(C)C)C(C)C) [SEQ ID NO 48]
